{"source": "patent US20190085033A1", "about": "(published 2019)", "binders": {"B1": {"name": "PGT121 (antibody, V domains shown)", "VH": "QMQLQESGPGLVKPSETLSLTCSVSGASISDSYWSWIRRSPGKGLEWIGYVHKSGDTNYSPSLKSRVNLSLDTSKNQVSLSLVAATAADSGKYYCARTLHGRRIYGIVAFNEWFTYFYMDVWGNGTQVTVSS", "VL": "SDISVAPGETARISCGEKSLGSRAVQWYQHRAGQAPSLIIYNNQDRPSGIPERFSGSPDSPFGTTATLTITSVEAGDEADYYCHIWDSRVPTKWVFGGGTTLTVL", "notes": "also called mature PGT121"}}, "molecular_target": "BG505-gp120 10MUT-KO (HIV-1, strain BG505)", "assay": "SPR, monomeric gp120"}
{"binder": "B1", "values": [{"measurement": "Kd", "value": 435, "unit": "nM"}]}
